{
  "source": "patent US20250296984A1",
  "about": "“THERAPEUTIC AND DIAGNOSTIC AGENTS AND USES THEREOF” (priority 2022, published 2025)",
  "molecules": {"B1": {"name": "7B1F3: mouse IgG1 kappa antibody against US28 ECD1 Peptide-N; VH SEQ ID NO: 211, VL SEQ ID NO: 213 (antibody, V domains shown)", "VH": "EVQLQQSGAELAKPGASVKMSCKASGYTFTNYWMHWVKQRPGQGLEWIGYVNPRTGYTEYNQKFKDKATLTADKSSRTAYMQLSSLTSEDSAVYSCARILNGTGFAYWGQGTLVTVSA", "VL": "DIVLTQSPSSLTVSVGEKFTMSCKSSQSLLYSSNQKNYLAWYQQKPGQSPKLLIYWASTRESGVPDRFTGSGSGTDFTLAISSVKPEDLAIYYCQQYYSFPLTFGAGTKLEIK", "modifications": "Mature form of VH sequence of 7B1F3, without the leader sequence; Mature form of VL sequence of 7B1F3, without the leader sequence"}},
  "test_in_all_cases": "HuProt Human Proteome Microarray, off-target human proteins",
  "type_in_all_cases": "binding",
  "set-up_in_all_cases": "key to Z Score: Z = (F635 − mean F635 of all spots) / SD; average of duplicate spots",
  "key": {"[1]": {"target": "T1, human proteins on HuProt Human Proteome Microarray (Homo sapiens, UniProt Q13895)", "T1 construct": "purchased CDI Labs (HuProt); host or cells: yeast S. cerevisiae", "T1 sequence (Q13895 1-437)": "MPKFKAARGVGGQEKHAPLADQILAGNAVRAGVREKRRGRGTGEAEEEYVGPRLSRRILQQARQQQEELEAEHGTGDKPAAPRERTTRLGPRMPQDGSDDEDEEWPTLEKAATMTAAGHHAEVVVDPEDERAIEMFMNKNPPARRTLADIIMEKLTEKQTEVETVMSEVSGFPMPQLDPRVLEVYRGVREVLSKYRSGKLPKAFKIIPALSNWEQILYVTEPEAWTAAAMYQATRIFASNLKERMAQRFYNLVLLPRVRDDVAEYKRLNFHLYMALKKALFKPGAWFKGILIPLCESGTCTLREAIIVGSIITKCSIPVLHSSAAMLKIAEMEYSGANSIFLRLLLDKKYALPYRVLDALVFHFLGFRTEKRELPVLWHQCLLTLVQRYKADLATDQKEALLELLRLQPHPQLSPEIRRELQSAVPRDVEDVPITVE", "settings": "Protein: BYSL", "description": "(§1) The HuProt™ Human Proteome Microarray provides the largest number of unique, full-length, individually purified human proteins on a single microscope slide. It provides >21,000 unique human proteins, isoform variants, and protein fragments—covering 16,794 unique genes. This includes 15,889 of the 19,613 canonical human proteins described in the Human Protein Atlas, with broad coverage across protein subclasses. This allows thousands of interactions to be profiled in a high-throughput manner. The full-length recombinant proteins are expressed in the yeast S. cerevisiae, purified, and printed on glass slides in duplicate along with a set of control proteins (GST, BSA, histones, IgG, etc.). The full list of the different proteins included in the HuProt™ Human Proteome Microarray as used in this Example is provided as “List B” in the Research Disclosures publication (ISSN 0374-4353, Questel Ireland Ltd) with database numbers 707018, 707019 and 707020, each entitled “Large scale protein arrange target protein identities” and each digitally published on 27 Jan. 2023, the contents of each of which are incorporated herein by reference in their entirety, fo the purposes of the disclosure of the proteins defined by “List B”. “List B” begins in Research Disclosures publication 707018, is continued in Research Disclosures publication 707019, and concludes Research Disclosures publications 707020, and so the three publications are to be read consecutively as a single disclosure of the “List B” proteins. The HuProt™ microarray is not restricted to a particular type of surface coating, although the default is glass coated with ultrathin nitrocellulose film for the non-covalent, yet irreversible, capture of active proteins to the surface.\n(§2) Samples of humanised 7B1F3 and mouse 7B1F3 antibodies were analysed for binding specificities on HuProt™ human proteome arrays. A peptide with the sequence TDVLNQSKPVTL (“Peptide 3”) was added to the arrays at 0.1 mg/ml as a control.\n(§3) After blocking, the arrays were probed with the antibody samples (0.1 μg/ml) at room temperature for 1 hour. Then the arrays were washed with TBST for 10 min×3 and probed with Alexa647-anti-human IgG Fc or Alexa647-anti-mouse IgG secondary antibodies under conditions optimized by CDI Labs for signal detection.\n(§4) • Non-specific hits that directly bind to the secondary antibodies were eliminated from the analysis of the samples. • CDI software was used to quantify the specificity of each individual sample to specific proteins on the array based on Z Scores. • Z score is the average Z score of the duplicate spots of a given protein (each protein is printed in duplicate on a HuProt™ array). The Z score of each spot on a given array is calculated according to the algorithm below:\n(§5) Z=[F635−F635(avg)]/F635(std) • F635(avg) and F635(std) are the average and standard deviation of the F635 values of all spots on the array, respectively. • S score is the difference of the Z Scores of a given protein and the one ranked next to it. If the S score of the top hit is >3, the antibody is considered to be highly specific for the top hit. • F635 is the average foreground signal intensity of 2 replicate spots of a given protein in the detection channel (635 nm). • B635 is the average background signal intensity of 2 replicate spots of a given protein in the detection channel (635 nm)."}, "[2]": {"target": "T2, human proteins on HuProt Human Proteome Microarray (Homo sapiens, UniProt Q14847)", "T2 construct": "purchased CDI Labs (HuProt); host or cells: yeast S. cerevisiae", "T2 sequence (Q14847 1-261)": "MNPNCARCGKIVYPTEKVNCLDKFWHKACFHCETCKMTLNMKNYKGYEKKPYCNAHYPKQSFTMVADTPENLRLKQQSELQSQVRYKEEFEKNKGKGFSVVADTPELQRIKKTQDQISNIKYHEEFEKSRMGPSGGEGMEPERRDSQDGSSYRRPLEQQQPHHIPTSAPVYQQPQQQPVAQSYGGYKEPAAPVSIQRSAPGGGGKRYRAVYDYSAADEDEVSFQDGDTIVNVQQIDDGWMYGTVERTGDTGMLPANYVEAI", "settings": "Protein: LASP1", "description": "as §1, §2, §3, §4, §5"}, "[3]": {"target": "T3, human proteins on HuProt Human Proteome Microarray (Homo sapiens, UniProt Q96F63)", "T3 construct": "purchased CDI Labs (HuProt); host or cells: yeast S. cerevisiae", "T3 sequence (Q96F63 1-343)": "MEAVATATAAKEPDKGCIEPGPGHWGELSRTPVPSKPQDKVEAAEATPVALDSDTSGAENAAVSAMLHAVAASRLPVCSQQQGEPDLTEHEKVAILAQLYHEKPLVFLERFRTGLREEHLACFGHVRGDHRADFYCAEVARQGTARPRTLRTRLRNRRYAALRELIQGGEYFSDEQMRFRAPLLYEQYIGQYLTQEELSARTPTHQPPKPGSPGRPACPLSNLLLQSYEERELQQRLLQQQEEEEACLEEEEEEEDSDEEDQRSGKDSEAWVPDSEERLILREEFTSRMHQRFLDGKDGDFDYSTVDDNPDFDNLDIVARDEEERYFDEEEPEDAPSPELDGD", "settings": "Protein: CCDC97", "description": "as §1, §2, §3, §4, §5"}},
  "data": [
    {"molecule": "B1", "values": [
      {"measurement": "F635", "setting": "[1]", "value": 2210},
      {"measurement": "Z Score", "setting": "[1]", "value": 6.3},
      {"measurement": "F635", "setting": "[2]", "value": 3681},
      {"measurement": "Z Score", "setting": "[2]", "value": 10.575},
      {"measurement": "F635", "setting": "[3]", "value": 2080},
      {"measurement": "Z Score", "setting": "[3]", "value": 5.922}
    ]}
  ]
}
